Experimental data: patent publication US20220153819A1

Target: human GITR on Jurkat/hGITR/hCD20 cells (human) (UniProt Q9Y5U5)
Assay: flow cytometry on Jurkat/hGITR/hCD20 cells

human GITR on Jurkat/hGITR/hCD20 cells (human), sequence (Q9Y5U5 26-241): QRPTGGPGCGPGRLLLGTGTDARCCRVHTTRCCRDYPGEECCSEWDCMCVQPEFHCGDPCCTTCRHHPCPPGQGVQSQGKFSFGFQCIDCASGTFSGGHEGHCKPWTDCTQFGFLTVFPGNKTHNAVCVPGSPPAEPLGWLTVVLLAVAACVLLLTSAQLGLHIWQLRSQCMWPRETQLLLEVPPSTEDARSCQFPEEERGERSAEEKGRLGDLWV

Substance: REGN1932, IgG1 isotype control antibody
- Maximum MFI: 39900 MFI
